Consider three molecules from patent publication US20040161826A1, “Thermostable enzymes having aminotransferase activity, nucleic acids encoding them and methods of making and using them” (priority 1999, published 2004).

The target in data set [1] is aromatic amino acid aminotransferase (Pyrococcus horikoshii, UniProt O59096). In words: Amino group transfer reaction with phenylalanine as donor, phenylpyruvic acid traced at 280 nm. In kind it is biochemical, Pyrococcus horikoshi. As to conditions: receptor 2-ketoglutaric acid, pH 8.0, 25° C. The protocol:
Then, kinetic parameters of each substrate were compared. […] Next, a change in the amount of NADH was traced with a change in absorbance at 340 nm, and then kinetic parameters, Kcat and Km values were measured.
When hydrophobic substrate (phenylalanine) was used as an amino group donor, the amount of reaction product (phenylpyruvic acid) was traced with a change in absorbance at 280 nm, and then Kcat and Km values were measured.

Substrate in data set [2]: N[C@@H](CC(=O)O)C(=O)O
Kind of data set: purified protein, by the assay type. As to conditions: other: amino group donor aspartic acid, receptor 2-ketoglutaric acid, pH 8.0, 25° C.

Data set [3] in a line: Optimum temperature and optimum pH from Kapp, DTNB reduction traced at 412 nm. Format: biochemical, Pyrococcus horikoshi. Conditions: substrates L-cysteic acid and 2-ketoglutaric acid. The protocol: The presence of aminotransferase activity can be determined by any means.
Optimum temperature and optimum pH were measured as described below using L-cysteic acid and 2-ketoglutaric acid as substrates. Optimum temperature was determined according to the temperature dependence of the Kapp value which was determined by varying the reaction temperature from 30° C. to 98° C. in 50 mM phosphate buffer (pH6.5), tracing an increase in absorbance at 412 nm resulting from reduction of 5,5′-Dithiobis ([…]) (DTNB), finding Kapp value from the initial velocity.
Optimum pH was determined according to pH dependence of the Kapp value which was determined under the measurement conditions as described above by maintaining the reaction temperature at 90° C., and varying the pH of an enzyme reaction solution from 3.4 to 7.5, finding Kapp.

Data set [4] can be described thus: Thermal stability: residual activity after heating. Format: physicochemical, Pyrococcus horikoshi. Conditions: pH 6.5, 95° C. for 6 hours, 0.1 mg/ml in 20 mM phosphate buffer. Here is the method: Thermal stability was analyzed by measurement of residual activity after heating and with a differential scanning calorimeter (DSC). To measure residual activity after heating, this enzyme (0.1 mg/ml) was heated for a certain period of time at 95° C. and at 110° C. in 20 mM phosphate buffer (pH6.5) and quenched. Then, residual activity was measured.

Data set [5] is described as follows: Thermal stability: differential scanning calorimeter (DSC). In kind it is physicochemical, Pyrococcus horikoshi. The protocol:
Thermal stability was analyzed by measurement of residual activity after heating and with a differential scanning calorimeter (DSC).
In measurement with DSC, a DSC (type CSC5100™, Calolimetry Science) was used. Cell temperature was increased from 0 to 125° C. (1 K/min), and then a change in thermal capacity of the enzyme protein in 20 mM phosphate buffer (pH6.5) was measured. Enzyme concentration employed was 1 mg/ml.
Background: In DSC, transitions show as peaks or steps in heat flow.

Data set [6] can be described thus: pH stability by circular dichrograph (CD). Conditions: 25° C. In kind it is physicochemical, Pyrococcus horikoshi. The protocol:
pH stability was analyzed using a circular dichrograph (CD, type J-720W, JASCO Corporation). The pH of an enzyme solution (0.1 mg/ml) was varied from 1.0 to 13.0, a change in intensity of negative ellipicity[q] at 25° C. was measured, so that pH stability was found.

A short description of data set [7]: Isoelectric focusing. Format: physicochemical, Pyrococcus horikoshi.

For `N[C@@H](Cc1ccccc1)C(=O)O` [phenylalanine], in data set [1], the Kcat was 12 s⁻¹.

B1: aromatic amino acid aminotransferase (Pyrococcus horikoshii OT3) (protein)
chain: MALSDRLELVSASEIRKLFDIAAGMKDVISLGIGEPDFDTPQHIKEYAKEALDKGLTHYGPNIGLLELREAIAEKLKKQNGIEADPKTEIMVLLGANQAFLMGLSAFLKDGEEVLIPTPAFVSYAPAVILAGGKPVEVPTYEEDEFRLNVDELKKYVTDKTRALIINSPCNPTGAVLTKKDLEEIADFVVEHDLIVISDEVYEHFIYDDARHYSIASLDGMFERTITVNGFSKTFAMTGWRLGFVAAPSWIIERMVKFQMYNATCPVTFIQYAAAKALKDERSWKAVEEMRKEYDRRRKLVWKRLNEMGLPTVKPKGAFYIFPRIRDTGLTSKKFSELMLKEARVAVVPGSAFGKAGEGYVRISYATAYEKLEEAMDRMERVLKERKLV
For the molecule B1, in data set [2], the kcat stood at 0.18 s⁻¹ and the kcat/Km stood at 1.7 M⁻¹ s⁻¹.

B2: this enzyme: thermostable aminotransferase of Pyrococcus horikoshi JCM9974, 388 residues, homodimeric, expressed recombinantly in E. coli (protein, listed as Pyrococcus horikoshi)
chain: MALSDRLELVSASEIRKLFDIAAGMKDVISLGIGEPDFDTPQHIKEYAKEALDKGLTHYGPNIGLLELREAIAEKLKKQNGIEADPKTEIMVLLGANQAFLMGLSAFLKDGEEVLIPTPAFVSYAPAVILAGGKPVEVPTYEEDEFRLNVDELKKYVTDKTRALIINSPCNPTGAVLTKKDLEEIADFVVEHDLIVISDEVYEHFIYDDARHYSIASLDGMFERTITVNGFSKTFAMTGWRLGFVAAPSWIIERMVKFQMYNATCPVTFIQYAAAKALKDERSWKAVEEMRKEYDRRRKLVWKRLNEMGLPTVKPKGAFYIFPRIRDTGLTSKKFSELMLKEARVAVVPGSAFGKAGEGYVRISYATAYEKLEEAMDRMERVLKERKLV
The molecule B2 showed an optimum temperature in data set [3] (50 mM phosphate buffer pH 6.5, 30° C. to 98° C.) of 90 °C. Further, the “optimum pH” value in data set [3] (90° C., pH 3.4 to 7.5) was 6.0. This molecule also had a Kapp value in data set [3] (pH 6.5, 90° C.) of 139 s⁻¹. In addition, the “residual activity after heating” value in data set [4] is reported as “remained stable, or was not deactivated”. In data set [5] (DSC, pH 6.5), the denaturation entry is “irreversible”. In data set [5] (at the melting temperature, pH 6.5), this molecule came in with an enthalpy change of 2400 kJ/mol. In data set [5] (pH 6.5, 20 mM phosphate buffer, 1 mg/ml, 1 K/min), the “melting temperature (Tm value)” value was 120.1 °C. Besides, the “pH range over which the enzyme remains stable” value in data set [6] (for 24 hours or more, 0.1 mg/ml) fell in the range of 4 to 11. Moreover, the a-helix content in data set [6] (pH 6.5) was found to be 40%. In addition, the isoelectric point in data set [7] is given as 5.2.

By kcat is commonly meant the maximal rate divided by the concentration of active sites. One may read the kcat/Km as the turnover number divided by the Michaelis constant.
